Assay results from paper PMC2765514 (Biochemistry, 2009).
Blank lines part the entries; values can stand above or below the binder they belong to.

Columns and labels:
[1] = target: the molecule itself; test: cross-linking
[2] = target: T1, soluble PDZK1 purified from bacteria (human, UniProt Q5T2W1 1-519); test: pull-down
T1 sequence (looked up): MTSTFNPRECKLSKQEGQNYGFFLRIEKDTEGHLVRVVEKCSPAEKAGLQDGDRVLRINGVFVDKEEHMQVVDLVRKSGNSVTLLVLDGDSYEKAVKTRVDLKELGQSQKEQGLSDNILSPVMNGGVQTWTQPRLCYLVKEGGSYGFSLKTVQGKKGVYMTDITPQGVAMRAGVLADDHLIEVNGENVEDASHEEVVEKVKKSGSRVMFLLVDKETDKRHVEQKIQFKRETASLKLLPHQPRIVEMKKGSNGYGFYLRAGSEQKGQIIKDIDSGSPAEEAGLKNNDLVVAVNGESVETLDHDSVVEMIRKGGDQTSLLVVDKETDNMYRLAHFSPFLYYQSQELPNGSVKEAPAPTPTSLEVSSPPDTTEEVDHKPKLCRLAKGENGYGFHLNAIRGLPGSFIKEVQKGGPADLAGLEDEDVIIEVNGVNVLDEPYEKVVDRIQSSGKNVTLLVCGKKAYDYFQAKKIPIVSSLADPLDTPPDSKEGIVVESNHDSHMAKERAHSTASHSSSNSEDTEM

[3] = target: T2, soluble PDZK1 ΔDTEM purified from bacteria (human, UniProt Q5T2W1 1-515); test: pull-down
T2 sequence (looked up): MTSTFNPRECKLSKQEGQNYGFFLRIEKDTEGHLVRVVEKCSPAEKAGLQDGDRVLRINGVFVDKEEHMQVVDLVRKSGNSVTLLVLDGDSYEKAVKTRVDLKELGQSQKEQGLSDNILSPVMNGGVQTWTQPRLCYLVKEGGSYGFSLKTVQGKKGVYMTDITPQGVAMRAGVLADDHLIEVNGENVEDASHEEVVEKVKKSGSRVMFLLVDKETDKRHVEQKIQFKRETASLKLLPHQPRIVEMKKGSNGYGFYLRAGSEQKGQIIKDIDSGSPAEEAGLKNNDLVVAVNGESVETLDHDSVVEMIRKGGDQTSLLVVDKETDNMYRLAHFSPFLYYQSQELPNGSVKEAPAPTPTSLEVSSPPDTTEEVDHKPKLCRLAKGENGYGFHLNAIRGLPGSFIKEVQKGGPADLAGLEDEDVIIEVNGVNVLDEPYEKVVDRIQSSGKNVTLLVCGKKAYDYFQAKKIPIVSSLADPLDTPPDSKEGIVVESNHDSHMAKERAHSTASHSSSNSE

B1: PDZK1 PDZs 3 and 4 to the end of the protein (amino acids 227–515), soluble (domain or fragment, human, UniProt Q5T2W1 227-515, looked up)
chain: FKRETASLKLLPHQPRIVEMKKGSNGYGFYLRAGSEQKGQIIKDIDSGSPAEEAGLKNNDLVVAVNGESVETLDHDSVVEMIRKGGDQTSLLVVDKETDNMYRLAHFSPFLYYQSQELPNGSVKEAPAPTPTSLEVSSPPDTTEEVDHKPKLCRLAKGENGYGFHLNAIRGLPGSFIKEVQKGGPADLAGLEDEDVIIEVNGVNVLDEPYEKVVDRIQSSGKNVTLLVCGKKAYDYFQAKKIPIVSSLADPLDTPPDSKEGIVVESNHDSHMAKERAHSTASHSSSNSE
stoichiometry N [1]: 2

binding result [2]: binds
binding result [3]: binds
B2: GST-PDZK1-tail (domain or fragment, human, UniProt Q5T2W1 458-519, looked up)
chain: KAYDYFQAKKIPIVSSLADPLDTPPDSKEGIVVESNHDSHMAKERAHSTASHSSSNSEDTEM
